This note sets out measurements from the supplement of paper PMC10126150.

The data set relates to ATP. In words: switch fluorescence ratio, 500 uM ATP over buffer (Cy3 cluster intensity, sum of 5 cycles each) (fold (ratio)); higher = stronger signal-on switching upon ATP binding; sequences stand for … in TCGTCGGCAGCGTCAGATGTGTATAAGAGACAGTTTTTTTTTTTTTTTTTTTTTTTTT…TC. To be noted: aptamer strand: ATP DNA aptamer (quencher-CACCTGGGGGAGTATTGCGGAGGAAGG + anchor), 100 nM annealed; ATP concentration: 500 uM. In outline:
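The quencher-labelled ATP aptamer, at 100 nM, was annealed to Cy3-labelled switching-strand clusters on a modified Illumina MiSeq flow-cell. The clusters were imaged in selection buffer, then after 15 min with 500 uM ATP at 22 °C, and this buffer/ATP cycle ran five times with NaOH stripping and re-annealing between runs. Per-cluster fluorescence ratios, summed target-cycle over summed buffer-cycle Cy3 intensity, were averaged per switch-domain sequence. Clusters outside 100-1000 RFU were excluded.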

± gives the standard deviation of the averaged measurements.
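Further: ATP exposure 15 min at 22 °C before imaging.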

In the case of GGGGGCTGCC, the switch fluorescence ratio amounted to 0.986 ± 0.011. The value for GGGGATGTAA was 1.01 ± 0.013; that for GGGGGTAAGA was 0.981 ± 0.028; that for GGAATGTTGG was 0.991 ± 0.032.

On to GCACATAGCT, for which the switch fluorescence ratio amounted to 1.01 ± 0.025.

As to TTAGGGATCT, the switch fluorescence ratio is 0.9904 ± 0.0042. Take TATTGAGGGA: the switch fluorescence ratio stood at 1.017 ± 0.0031. The value for ATCAGAACAA was 1.01 ± 0.0069. In the case of GATTGCGGGC it was 1.03 ± 0.011; in that of AAAGAAGCAT, 1.001 ± 0.0059; in that of TCGGATAGGG, 1.04 ± 0.071. For the sequence GACGTTTTTA, the switch fluorescence ratio was 1.01 ± 0.046. The value for CCAAAGGGGT was 1.06 ± 0.046; that for GAGACTAGGT was 1.04 ± 0.025; that for TGTTTCTTGA was 1.01 ± 0.058. With TCCGTGCGGT, the switch fluorescence ratio stood at 1.04 ± 0.066. For ATGACAGGAT, the switch fluorescence ratio amounted to 1 ± 0.023. As to CAAATAATAG, the switch fluorescence ratio was found to be 0.977 ± 0.033. TTTGAGTGAT: the switch fluorescence ratio was 1.01 ± 0.057. On to AGGGGTATGG, for which the switch fluorescence ratio was 0.998 ± 0.017. Consider CAGATGCAGA, for which the switch fluorescence ratio is 1.065 ± 0.0071. On to GCAGCCTGCT, for which the switch fluorescence ratio was found to be 0.985 ± 0.032. As for GGGGAGGGCA, the switch fluorescence ratio was found to be 1.02 ± 0.035. For the sequence AATGTAAGGT, the switch fluorescence ratio worked out at 1.012 ± 0.006.

Turning to TGGTAGCAGT, the switch fluorescence ratio came out at 0.989 ± 0.037. With CGGGTGAGTA, the switch fluorescence ratio stood at 1.05 ± 0.08. As for TCGAAGGTTT, the switch fluorescence ratio came out at 1.01 ± 0.029. For ACTAAAAGGT, the switch fluorescence ratio was 1.01 ± 0.012.

Take CTCCGTGGGG: the switch fluorescence ratio came to 1.47 ± 0.042.

Consider GAATTGTATT, for which the switch fluorescence ratio is 0.993 ± 0.06. GTGAGGCCCC: the switch fluorescence ratio came out at 1 ± 0.02. Regarding GGGATACTTA, the switch fluorescence ratio is 1.02 ± 0.04. Consider ATGAAAGTGC, for which the switch fluorescence ratio was determined as 1.02 ± 0.017.

Take ATGGGCTGG: the switch fluorescence ratio came out at 0.975 ± 0.031. As to TTAAGTGCTA, the switch fluorescence ratio came out at 0.9897 ± 0.0067. Turning to CTAAGCCAAT, the switch fluorescence ratio is 1.21 ± 0.023.

Consider AGACCTAAAG, for which the switch fluorescence ratio worked out at 1.05 ± 0.069.

Regarding GAGGTGTTTT, the switch fluorescence ratio is 1.01 ± 0.06. For the sequence CGGGGAAGTG, the switch fluorescence ratio came to 1 ± 0.019. Regarding TTCACTATTT, the switch fluorescence ratio is 1.02 ± 0.028. In the case of TTGGGCATCT it was 1.003 ± 0.0031; in that of TTTAAAAGCT, 1.07 ± 0.038; in that of GCTTTTGGGC, 0.963 ± 0.023. For GGGTTGAAGG, the switch fluorescence ratio amounted to 0.9875 ± 0.0022. In the case of TTTTAATGCG, the switch fluorescence ratio stood at 1.04 ± 0.012. As to TATTTGTGTG, the switch fluorescence ratio was determined as 0.998 ± 0.029.

Regarding GACCATGGCA, the switch fluorescence ratio stood at 1.01 ± 0.045. Regarding AAGTGTCTTG, the switch fluorescence ratio is 0.999 ± 0.05. ACGTTACTCA: the switch fluorescence ratio was determined as 1.5 ± 0.032. On to GGGTGGTGTG, for which the switch fluorescence ratio amounted to 0.99 ± 0.068. In the case of GTTGGCCTCT it was 1.02 ± 0.022; in that of AAGGGTTGAG, 0.981 ± 0.046.

As to CATGCTGGGC, the switch fluorescence ratio came to 1.0235 ± 0.00067. In the case of ACTGGGTGGC, the switch fluorescence ratio was 1.01 ± 0.029. Regarding CGAACTTGGA, the switch fluorescence ratio turned out to be 0.9882 ± 0.0074. For the sequence ACGTGAGTGT, the switch fluorescence ratio was 0.977 ± 0.0076. As to GGGAGGGCAT, the switch fluorescence ratio was 1 ± 0.027. For TGAGGTGCGT, the switch fluorescence ratio amounted to 0.995 ± 0.033. Consider TTTAGATCGG, for which the switch fluorescence ratio was 1.01 ± 0.046. Turning to ATTCTTTGGT, the switch fluorescence ratio amounted to 0.979 ± 0.054. For the sequence CCGTTTTTGT, the switch fluorescence ratio came to 0.9922 ± 0.006. As to GGATTGGGTG, the switch fluorescence ratio was 1.04 ± 0.09. For AGTTGGGAGC, the switch fluorescence ratio turned out to be 0.991 ± 0.02. The value for CCTGTTTGTA was 1.01 ± 0.066; that for TTGTGGTAAG was 0.992 ± 0.022. As for TAGTACTATC, the switch fluorescence ratio stood at 0.993 ± 0.021.
